T1: recombinant human CXCL1 protein (human, UniProt P09341 35-107)
T1 sequence: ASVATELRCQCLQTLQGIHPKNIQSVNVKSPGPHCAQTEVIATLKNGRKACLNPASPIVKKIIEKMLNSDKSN

T2: mouse CXCL1 (mouse, UniProt P12850 25-96, limits assumed)
T2 sequence (looked up): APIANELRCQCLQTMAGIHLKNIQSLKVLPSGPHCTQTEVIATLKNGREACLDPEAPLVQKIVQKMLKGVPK

T3: rat CXCL1 (rat, UniProt P14095 25-96, limits assumed)
T3 sequence (looked up): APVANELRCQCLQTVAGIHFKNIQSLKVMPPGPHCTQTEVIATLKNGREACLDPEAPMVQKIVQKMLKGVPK


How the values were obtained:
[1] = target: T1, recombinant human CXCL1 protein; assay: apparent affinity-binding constant, in PBS; method not stated (FIG. 1B); in PBS
[2] = target: T2, mouse CXCL1; assay: Western blot: recombinant CXCL1 loaded at 10, 20 and 30 ng, probed with HL2401
[3] = target: T3, rat CXCL1; assay: as above
[4] = target: T1, recombinant human CXCL1 protein; assay: apparent affinity-binding constant, in serum 1:4 dilution; method not stated (FIG. 1B); serum, 1:4 dilution
[5] = target: T1, recombinant human CXCL1 protein; assay: apparent affinity-binding constant, in serum 1:40 dilution; method not stated (FIG. 1B); serum, 1:40 dilution
[6] = target: T1, recombinant human CXCL1 protein; assay: ELISA on coated human CXCL1 against coated BSA, scFv at 10 and 2 ug/mL, anti-Myc HRP, TMB
Description: The human CxCL1 protein was coated onto 96-well, 30 ng for well at 4° C. overnight. The plate was blocked by 3% skim milk in PBS 2 h at room temperature. The plate was washed 3 times with PBST and applied anti-human CXCL1 humanized version scFv antibodies at different dilution concentration. The anti-Myc mouse monoclonal antibody with HRP conjugate antibody was applied and developed with TMB solution.

Kd [1] [µg/mL]	binding result [2]	binding result [3]	Kd [4] [µg/mL]	Kd [5] [µg/mL]	binding result [6]	Binder
0.176	no binding (tested: 30 ng)	no binding (tested: 30 ng)	0.387	0.252		anti-CXCL1 neutralizing monoclonal mouse antibody (HL2401) (antibody, V domains shown, Mouse IgG from hybridoma clone HL2401, purified on protein G; also called CXCL1 mAb (HL2401); CXCL1 monoclonal antibody (HL2401)) VH: EVKLVESGAELVKPGASVKLSCKASGYTFTSYYIYWVKQRPGQGLEWIGEIDPSHGGPTFNEKFKNKATLTVDKSSSTAYMQLSSLTSDDSAVYYCTRESGTGAMDYWGQGTTLTVSS VL: DIVLTQSPASLAVSLGQRATISCKASQSVDYDGDSYVNWYQQKPGQPPKLLIYAASNLESRIPARFSGSGSGTDFTLNILPVEEDDGATYYCQQSSEDPWTFGGGTKLEIKR
					binds	HUM2401-ScFv_1 (humanized version 2) (scFv, Detected through a c-Myc tag; also called HumH2401scFv; Hum HL2401_scFv) scFv: QVQLVESGGGLVQPGGSLRLSCKASGYTFTSYYIYWVRQAPGKGLEWIGEIDPSHGGPTFNEKFKNRFTISRDNSKNTLYLQMNSLRAEDTAVYYCTRESGTGAMDYWGQGTLVTVSSGGGGSGGGGSGGGARGGGGSDIQMTQSPSSLSASVGDRATISCKASQSVDYDGDSYVNWYQQKPGKAPKLLIYAASNLESGIPSRFSGSGSGTDFTLTISSLQPEDFATYYCQQSSEDPWTFGQGTKVEIKR
